The text below walks through data of publication PMC6127644.

Assay [1] has as its target NMDAR reconstituted from GluN1Rluc and GluN2B (human) (UniProt Q05586). Briefly: FRET or BRET; BRET^2 saturation in HEK-293T cells: constant GluN1-RLuc and GluN2B cDNA, increasing NCS1-GFP^2 cDNA; 5 uM Deep Blue C.
In assay [2] the target is endogenous NMDAR of mouse primary neurons and microglia (mouse (endogenous in primary neurons and microglia)) (UniProt P35438). Briefly: proximity ligation; in situ PLA on primary neurons from non-transgenic control embryos; percent of cells with red dots and dots per cell counted (Figure 5C,D).
For assay [3] the target is unchanged. Briefly: proximity ligation; in situ PLA on primary microglia from APP_(Sw,Ind) transgenic mice; percent of cells with red dots and dots per cell counted (Figure 6B,C).
The target is the same in assay [4]. Briefly: proximity ligation; in situ PLA on primary microglia from non-transgenic control mice; percent of cells with red dots and dots per cell counted (Figure 6B,C).
Assay [5] addresses GluN1Rluc expressed without GluN2 (human) (UniProt Q05586). Briefly: FRET or BRET; BRET^1 saturation in HEK-293T cells: constant GluN1Rluc cDNA (0.3 ug) without GluN2, increasing cDNA of the YFP-fused calcium sensor. In general terms: In BRET a luciferase serves as donor, and the signal depends on an acceptor being close.
The target of assay [6] is endogenous NMDAR of mouse primary neurons and microglia (mouse (endogenous in primary neurons and microglia)) (UniProt P35438). Briefly: proximity ligation; in situ PLA on primary neurons from APP_(Sw,Ind) transgenic embryos; percent of cells with red dots and dots per cell counted (Figure 5C,D).

“NCS1GFP^2 fusion protein (from UniProt P62166 1-190) (natural protein)” had a BRET50 in assay [1] of 35.

In the case of “endogenous calmodulin of mouse primary neurons and microglia (from UniProt P0DP26 1-149) (natural protein)”, the percent of neurons with PLA complexes in assay [2] worked out at 77%. Also, in assay [3], the PLA red dots per cell containing dots (red dots/cell containing dots) turned out to be 6 and the percent of microglial cells with PLA complexes is 65%. In assay [4], this molecule displayed a PLA red dots per cell containing dots (red dots/cell containing dots) of 3 and a percent of microglial cells with PLA complexes of 35%.

“CaM-YFP fusion protein (from UniProt P0DP23 1-149) (natural protein)”: the BRET50 in assay [5] turned out to be 3.5.

Take “endogenous NCS1 of mouse primary neurons and microglia (from UniProt Q8BNY6 1-190) (natural protein)”: in assay [2], the PLA clusters per cell (clusters per cell) is 2 and the percent of neurons with PLA complexes came to 21%. In assay [6], this molecule returned a PLA clusters per cell (clusters per cell) of 5.5 and a percent of neurons with PLA complexes of 68%.

As for “NCS1YFP fusion protein (from UniProt P62166 1-190) (natural protein)”, in assay [5], the BRET50 came out at 30.

B1: endogenous calneuron-1 of mouse primary neurons (natural protein)
chain: MRLPEQPGDGKPENETKGDQETPERGEEPRRSPAPDFPTWEKMPFHHVTAGLLYKGNYLNRSLSAGSDSEQLANISVEELDEIREAFRVLDRDGNGFISKQELGMAMRSLGYMPSEVELAIIMQRLDMDGDGQVDFDEFMTILGPKLVSSEGRDGFLGNTIDSIFWQFDMQRVTLEELKHILYHAFRDHLTMKDIENIIINEEESLNETSGNCQTEFEGVHSQKQNRQTCVRKSLICAFAMAFIISVMLIAANQILRSGME
For the molecule B1, in assay [2], the percent of neurons with PLA complexes was 14%.
